Results published in patent US20250250355A1 (BIOSION, published 2025).
Like-named read-outs stand apart in the source and are kept apart here.

Key:
[1] = molecular target: T1, recombinant human SIRPα-Fc protein (human, biotin-labeled (sites not given)); assay: capture ELISA, antibody captured on anti-mouse IgG F(ab')2, biotin-labeled human SIRPα-Fc in solution, OD(450-630)
T1 construct: also called biotin-labeled human SIRPα-Fc protein

[2] = molecular target: human SIRPα-isoform 2-his protein (human); assay: indirect ELISA on coated human SIRPα-isoform 2-his, OD(450-630)
[3] = molecular target: T2, full length human SIRPγ endogenously expressed on Jurkat cells (human, UniProt Q9P1W8 29-387); assay: cell based binding FACS on Jurkat cells (endogenous human SIRPγ), MFI; curve flat near MFI 0 (see non_binding)
T2 construct: whole, on cells; also called human SIRPγ expressed on Jurkat cells

[4] = molecular target: T3, full length human SIRPα on cell membranes (HEK293-SIRPα cells; 293F-SIRPα cells) (human, UniProt P78324 31-504); assay: cell based blocking FACS on 293F-SIRPα cells; blocked ligand: biotin-labeled human CD47-Fc, MFI
T3 construct: whole, on cells; also called cell surface human SIRPα; cell surface SIRPα

[5] = molecular target: T3, full length human SIRPα on cell …; assay: cell based binding FACS on HEK293-SIRPα cells, MFI
[6] = molecular target: T4, cynomolgus SIRPα-his protein (cynomolgus); assay: indirect ELISA on coated cynomolgus SIRPα-his, OD(450-630)
T4 construct: also called Cyno SIRPα-his; monkey SIRPα
T4 chain: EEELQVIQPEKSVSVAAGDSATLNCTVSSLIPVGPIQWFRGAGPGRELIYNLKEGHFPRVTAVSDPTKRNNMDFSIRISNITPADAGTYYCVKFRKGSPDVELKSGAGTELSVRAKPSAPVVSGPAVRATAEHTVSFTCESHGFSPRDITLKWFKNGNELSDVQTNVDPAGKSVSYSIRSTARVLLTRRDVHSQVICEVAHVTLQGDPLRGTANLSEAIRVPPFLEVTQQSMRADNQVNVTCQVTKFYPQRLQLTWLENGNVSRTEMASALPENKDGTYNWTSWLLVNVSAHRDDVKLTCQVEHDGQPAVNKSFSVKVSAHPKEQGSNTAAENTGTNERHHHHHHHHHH

human SIRPα-his protein [7] = molecular target: T5, human SIRPα-his protein (human, UniProt P78324 31-370); assay: competitive ELISA on coated human SIRPα-his; blocked ligand: biotin-labeled human CD47-his, OD(450-630)
[8] = molecular target: T6, full length human SIRPβ on cell membranes (HEK293-SIRPβ cells; 293F cells expressing human SIRPβ) (human, UniProt O00241 30-398); assay: cell based binding FACS on HEK293-SIRPβ cells, MFI; plateau at MFI about 1300
T6 construct: whole, on cells; also called cell surface human SIRPβ

[9] = molecular target: T4, cynomolgus SIRPα-his protein; assay: indirect ELISA on coated cynomolgus SIRPα-his, OD(450-630); curve rises only above about 3 nM, to OD about 0.9 at the last point, no plateau
[10] = molecular target: T6, full length human SIRPβ on cell …; assay: cell based binding FACS on HEK293-SIRPβ cells, MFI
[11] = molecular target: T7, human FcRn protein (Cat #FCM-H5286, Acro biosystems Inc.) (human, UniProt P55899 24-297; P61769 21-119); assay: SPR (Biacore); human FcRn covalently linked to CM5 chip, antibody flowed from 62.5 µg/ml; pH 7.4
[12] = molecular target: T7, human FcRn protein (Cat #FCM-H5286, …); assay: SPR (Biacore); human FcRn covalently linked to CM5 chip, antibody flowed from 62.5 µg/ml; pH 6.0
[13] = molecular target: T4, cynomolgus SIRPα-his protein; assay: SPR (Biacore T200); antibody captured on Protein A chip, cynomolgus SIRPα-his flowed from 200 nM; 1:1 Langmuir fit
[14] = molecular target: human SIRPα-V8-his protein (human, UniProt P78324 31-370, limits assumed); assay: indirect ELISA on coated human SIRPα-V8-his, OD(450-630)
[15] = molecular target: T3, full length human SIRPα on cell …; assay: cell based binding FACS on 293F cells expressing human SIRPα, MFI
[16] = molecular target: T4, cynomolgus SIRPα-his protein; assay: indirect ELISA on coated cynomolgus SIRPα-his, OD(450-630)
human SIRPα-his protein [17] = molecular target: T5, human SIRPα-his protein; assay: SPR (Biacore T200); antibody captured on Protein A chip, human SIRPα-his flowed from 200 nM; 1:1 Langmuir fit
mouse SIRPα-his = molecular target: T8, mouse SIRPα-his (mouse, UniProt P97797 35-363, limits assumed); assay: indirect ELISA on coated mouse SIRPα-his, OD(450-630)
T8 chain: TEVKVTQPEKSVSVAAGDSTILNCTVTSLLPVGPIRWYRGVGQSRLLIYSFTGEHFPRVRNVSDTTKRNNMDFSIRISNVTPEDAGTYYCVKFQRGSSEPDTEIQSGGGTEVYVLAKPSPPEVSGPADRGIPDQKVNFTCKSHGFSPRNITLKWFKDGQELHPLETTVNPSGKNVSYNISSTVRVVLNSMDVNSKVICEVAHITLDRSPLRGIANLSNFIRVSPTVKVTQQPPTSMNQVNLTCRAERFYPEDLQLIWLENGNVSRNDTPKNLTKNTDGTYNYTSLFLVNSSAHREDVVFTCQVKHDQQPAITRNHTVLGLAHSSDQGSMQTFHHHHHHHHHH

[18] = molecular target: T3, full length human SIRPα on cell …; assay: cell based blocking FACS on 293F-SIRPα cells; blocked ligand: human CD47 protein (CD47-Fc), MFI
[19] = molecular target: human SIRPα protein (soluble, used on 293F-CD47 cells) (human, UniProt P78324 31-370, limits assumed); assay: cell based blocking FACS on 293F-CD47 cells; soluble human SIRPα protein blocked from binding cell surface human CD47, MFI
[20] = molecular target: human SIRPα-isoform 2-his protein (human); assay: indirect ELISA on coated human SIRPα-isoform 2-his, OD(450-630); remark: listed apart in the source
[21] = molecular target: T6, full length human SIRPβ on cell …; assay: cell based binding FACS on 293F cells expressing human SIRPβ, MFI
human SIRPγ-his protein = human SIRPγ-his protein (human, UniProt Q9P1W8 29-360, limits assumed); assay: SPR (Biacore T200), antibody captured on Protein A chip, human SIRPγ-his flowed
[22] = molecular target: T2, full length human SIRPγ endogenously …; assay: cell based binding FACS on Jurkat cells (endogenous human SIRPγ), MFI
human SIRPβ-his protein = human SIRPβ-his protein (human, UniProt O00241 30-371); assay: SPR (Biacore T200), antibody captured on Protein A chip, human SIRPβ-his flowed
[23] = molecular target: T7, human FcRn protein (Cat #FCM-H5286, …); assay: SPR (Biacore); human FcRn covalently linked to CM5 chip, antibody flowed from 62.5 µg/ml; pH 6.0; pH 6.0

T3 sequence (P78324 31-504): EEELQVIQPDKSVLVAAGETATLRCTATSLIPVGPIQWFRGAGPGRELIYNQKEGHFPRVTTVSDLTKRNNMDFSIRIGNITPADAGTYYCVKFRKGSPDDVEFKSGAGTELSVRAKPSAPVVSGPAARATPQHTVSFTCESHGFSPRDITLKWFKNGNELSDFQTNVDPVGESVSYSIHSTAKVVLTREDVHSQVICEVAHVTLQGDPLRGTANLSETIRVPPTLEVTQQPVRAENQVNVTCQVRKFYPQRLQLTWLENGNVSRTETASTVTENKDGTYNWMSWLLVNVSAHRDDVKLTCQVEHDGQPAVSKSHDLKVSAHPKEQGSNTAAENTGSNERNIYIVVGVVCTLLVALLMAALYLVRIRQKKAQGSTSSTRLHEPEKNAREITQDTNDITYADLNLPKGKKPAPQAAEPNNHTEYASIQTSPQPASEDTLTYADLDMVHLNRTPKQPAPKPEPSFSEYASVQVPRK
T5 sequence (P78324 other isoform, or with tags, fused parts or gaps limits assumed): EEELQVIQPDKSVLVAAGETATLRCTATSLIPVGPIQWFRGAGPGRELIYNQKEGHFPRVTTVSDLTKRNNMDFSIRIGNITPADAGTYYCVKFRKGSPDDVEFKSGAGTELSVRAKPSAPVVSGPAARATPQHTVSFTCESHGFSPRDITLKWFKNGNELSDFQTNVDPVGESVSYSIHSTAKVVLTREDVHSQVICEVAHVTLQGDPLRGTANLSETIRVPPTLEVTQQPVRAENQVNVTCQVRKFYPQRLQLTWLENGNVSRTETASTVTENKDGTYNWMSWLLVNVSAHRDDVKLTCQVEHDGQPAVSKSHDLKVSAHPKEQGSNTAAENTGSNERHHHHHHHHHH
T7 sequence (P55899 24-297 limits assumed, chain 1 of 2): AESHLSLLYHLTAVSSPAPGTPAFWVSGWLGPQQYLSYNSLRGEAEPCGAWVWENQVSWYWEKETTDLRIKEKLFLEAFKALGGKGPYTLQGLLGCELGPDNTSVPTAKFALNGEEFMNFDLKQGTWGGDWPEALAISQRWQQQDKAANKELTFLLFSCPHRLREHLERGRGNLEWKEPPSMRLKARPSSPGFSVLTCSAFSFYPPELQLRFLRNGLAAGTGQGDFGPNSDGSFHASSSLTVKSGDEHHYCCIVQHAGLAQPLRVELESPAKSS
T7 sequence (P61769 21-119 limits assumed, chain 2 of 2): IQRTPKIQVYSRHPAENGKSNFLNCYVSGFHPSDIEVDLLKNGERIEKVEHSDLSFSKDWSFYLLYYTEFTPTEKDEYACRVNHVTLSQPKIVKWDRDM
T2 sequence (Q9P1W8 29-387): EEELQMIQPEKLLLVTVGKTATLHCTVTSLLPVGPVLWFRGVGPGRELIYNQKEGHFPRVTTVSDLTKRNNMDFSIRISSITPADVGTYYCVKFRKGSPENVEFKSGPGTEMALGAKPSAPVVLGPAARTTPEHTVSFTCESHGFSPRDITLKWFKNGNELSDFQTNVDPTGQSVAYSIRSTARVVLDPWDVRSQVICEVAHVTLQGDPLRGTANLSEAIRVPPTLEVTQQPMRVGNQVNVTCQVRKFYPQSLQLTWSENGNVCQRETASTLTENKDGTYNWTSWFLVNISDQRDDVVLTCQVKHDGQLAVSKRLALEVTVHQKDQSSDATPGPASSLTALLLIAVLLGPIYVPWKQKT
Chain of human SIRPα-isoform 2-his protein (human) (chain, as listed by the source limits assumed): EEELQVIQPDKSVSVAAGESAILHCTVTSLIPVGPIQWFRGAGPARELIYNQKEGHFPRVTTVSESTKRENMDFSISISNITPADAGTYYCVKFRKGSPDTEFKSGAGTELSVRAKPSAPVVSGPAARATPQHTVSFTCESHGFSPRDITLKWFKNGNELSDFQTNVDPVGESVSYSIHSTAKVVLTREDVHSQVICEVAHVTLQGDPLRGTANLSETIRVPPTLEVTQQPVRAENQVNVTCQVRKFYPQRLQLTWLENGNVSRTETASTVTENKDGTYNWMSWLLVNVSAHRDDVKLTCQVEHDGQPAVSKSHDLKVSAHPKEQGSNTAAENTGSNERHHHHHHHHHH
T6 sequence (O00241 30-398): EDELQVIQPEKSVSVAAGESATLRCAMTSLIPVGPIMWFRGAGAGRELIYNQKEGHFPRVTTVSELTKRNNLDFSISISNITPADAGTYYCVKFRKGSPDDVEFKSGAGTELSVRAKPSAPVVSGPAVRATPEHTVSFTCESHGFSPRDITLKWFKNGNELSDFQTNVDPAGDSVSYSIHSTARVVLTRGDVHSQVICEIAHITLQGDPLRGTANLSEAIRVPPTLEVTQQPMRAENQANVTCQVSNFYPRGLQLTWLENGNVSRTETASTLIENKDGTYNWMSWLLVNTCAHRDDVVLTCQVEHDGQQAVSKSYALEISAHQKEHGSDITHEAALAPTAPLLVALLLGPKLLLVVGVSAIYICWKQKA
Chain of human SIRPβ-his protein (O00241 other isoform, or with tags, fused parts or gaps limits assumed): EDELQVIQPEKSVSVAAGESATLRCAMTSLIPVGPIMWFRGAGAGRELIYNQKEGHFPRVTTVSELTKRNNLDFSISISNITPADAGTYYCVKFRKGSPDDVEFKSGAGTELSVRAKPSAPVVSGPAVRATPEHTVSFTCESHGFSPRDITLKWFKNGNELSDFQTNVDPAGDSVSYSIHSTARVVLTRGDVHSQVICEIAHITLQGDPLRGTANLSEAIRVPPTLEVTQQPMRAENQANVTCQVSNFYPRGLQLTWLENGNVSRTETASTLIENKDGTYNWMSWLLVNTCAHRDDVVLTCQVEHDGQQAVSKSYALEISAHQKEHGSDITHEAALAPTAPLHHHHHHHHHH
Chain of human SIRPα protein (soluble, used on 293F-CD47 cells) (P78324 31-370 limits assumed): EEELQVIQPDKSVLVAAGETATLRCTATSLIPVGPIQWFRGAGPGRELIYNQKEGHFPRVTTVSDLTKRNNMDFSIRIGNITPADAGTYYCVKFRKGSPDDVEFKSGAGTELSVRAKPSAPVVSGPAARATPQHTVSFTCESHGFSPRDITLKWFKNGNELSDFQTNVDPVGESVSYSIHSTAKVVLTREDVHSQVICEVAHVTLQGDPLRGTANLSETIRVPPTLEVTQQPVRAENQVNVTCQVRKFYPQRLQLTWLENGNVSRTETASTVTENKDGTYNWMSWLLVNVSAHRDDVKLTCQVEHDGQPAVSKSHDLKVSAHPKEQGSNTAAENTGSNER
Chain of human SIRPγ-his protein (Q9P1W8 29-360 limits assumed): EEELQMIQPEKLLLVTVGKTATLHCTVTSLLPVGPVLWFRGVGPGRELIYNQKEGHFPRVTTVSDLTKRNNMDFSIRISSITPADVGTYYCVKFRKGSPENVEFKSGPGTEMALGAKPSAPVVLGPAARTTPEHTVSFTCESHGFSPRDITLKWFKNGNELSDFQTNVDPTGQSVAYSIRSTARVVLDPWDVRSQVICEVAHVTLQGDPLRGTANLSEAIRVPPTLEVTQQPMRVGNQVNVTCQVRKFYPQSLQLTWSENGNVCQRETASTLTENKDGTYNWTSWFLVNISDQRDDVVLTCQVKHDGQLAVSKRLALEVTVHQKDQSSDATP
Chain of human SIRPα-V8-his protein (P78324 other isoform, or with tags, fused parts or gaps limits assumed): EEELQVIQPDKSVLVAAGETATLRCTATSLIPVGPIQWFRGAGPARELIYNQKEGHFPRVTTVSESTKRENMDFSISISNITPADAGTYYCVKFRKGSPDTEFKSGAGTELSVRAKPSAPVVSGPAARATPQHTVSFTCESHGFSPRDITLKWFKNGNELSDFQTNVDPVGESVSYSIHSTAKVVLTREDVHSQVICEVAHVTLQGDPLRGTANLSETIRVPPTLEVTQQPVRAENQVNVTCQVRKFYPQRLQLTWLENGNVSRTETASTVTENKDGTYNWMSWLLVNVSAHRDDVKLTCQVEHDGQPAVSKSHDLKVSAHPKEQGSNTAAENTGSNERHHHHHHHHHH
T1 sequence (chain, as listed by the source limits assumed): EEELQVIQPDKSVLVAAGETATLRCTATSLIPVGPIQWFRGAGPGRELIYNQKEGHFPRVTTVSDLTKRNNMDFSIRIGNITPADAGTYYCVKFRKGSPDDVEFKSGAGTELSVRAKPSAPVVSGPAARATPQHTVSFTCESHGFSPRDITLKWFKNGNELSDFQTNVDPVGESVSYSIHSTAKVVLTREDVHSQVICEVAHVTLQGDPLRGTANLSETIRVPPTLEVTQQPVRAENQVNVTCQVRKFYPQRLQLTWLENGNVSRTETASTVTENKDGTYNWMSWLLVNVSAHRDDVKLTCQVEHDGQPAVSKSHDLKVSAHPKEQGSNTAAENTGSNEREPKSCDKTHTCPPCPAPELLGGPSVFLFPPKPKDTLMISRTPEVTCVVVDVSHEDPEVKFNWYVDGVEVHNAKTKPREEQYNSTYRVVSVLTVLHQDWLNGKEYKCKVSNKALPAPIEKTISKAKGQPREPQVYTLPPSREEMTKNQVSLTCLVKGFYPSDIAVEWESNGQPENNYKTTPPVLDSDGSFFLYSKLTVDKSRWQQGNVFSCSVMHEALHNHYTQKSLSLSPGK

| Binder | EC50 [1] [nM] | EC50 [2] [nM] | EC50 [3] [nM] | IC50 [4] [nM] | EC50 [5] [nM] | IC50 (human SIRPα-his protein [7]) [nM] | Kd [13] [nM] | koff [13] [s⁻¹] | kon [13] [M⁻¹ s⁻¹] | EC50 [14] [nM] | EC50 [15] [nM] | EC50 [16] [nM] | Kd (human SIRPα-his protein [17]) [nM] | koff (human SIRPα-his protein [17]) [s⁻¹] | kon (human SIRPα-his protein [17]) [M⁻¹ s⁻¹] | binding result (mouse SIRPα-his) | IC50 [18] [nM] | IC50 [19] [nM] | EC50 [20] [nM] | EC50 [21] [nM] | other results |
| --- | --- | --- | --- | --- | --- | --- | --- | --- | --- | --- | --- | --- | --- | --- | --- | --- | --- | --- | --- | --- | --- |
| E1D5E1F1 (antibody, V domains shown, Purified from a hybridoma of AceMouse mice: human heavy and light chain variable regions with mouse constant regions) VH: QVQLVQSGAEVKKPGASVKVSCKASGYTFTSFAMQWVRRAPGQRLEWMGWIIAGNGDTKYSQNFQDRVTLTRDTSANTAYMDLSGLRSEDTAVYYCARGSGFSGYGYFDKWGQGTLVTVSS VL: DIQMTQSPSSLSASVGDRVTITCRASHSISSYLNWYQQKPGKVPKLLIYASSSLQSGVPSRFSGNGSGTDFTLIISSLQPEDFATYYCQQSHSIPLTFGGGTKVEIK | 0.0715 | 0.119 | 0.63 | 0.706 | 0.927 | 2.17 |  |  |  |  |  |  |  |  |  |  |  |  |  |  | EC50 [6]: 0.094 nM; EC50 [8]: 0.738 nM |
| E1F1B1C3 (antibody, V domains shown) VH: QVQLVQSGAEVKKPGASVKVSCKASGYTFTSNAMHWVRQVPGQGLEWMGWIKAGNGEIKYSQKFQGRVTITRDTSATTAYMELSSLRSEDTAVYYCARGDYYYYYMDVWGKGTTVTVSS VL: DIQVTQSPSSLSASVGDRVTITCRASQSISDFLNWYQQKPGKAPKLLIHAASSLQNGVPSRFSGSGSGTDFSLTINSLQPEDFATYYCQQSYSTPLSFGGGTKVEIK | 0.0491 | 0.105 | 106 | 0.146 | 0.303 | 2.13 |  |  |  |  |  |  |  |  |  |  |  |  |  |  | EC50 [9]: 48.1 nM; EC50 [10]: 0.217 nM |
| E1H10B7-CDRV1-IgG1 (YTE) (antibody) heavy: QVQLVQSGAEVKKPGASVKVSCKASGYTFTSYAMQWVRQAPGQRLEWMGWIIAGNADTKYSQNFQDRVTLTRDTSANTAYMDLSGLRSEDTAVYYCARGSGFSGYGYFDKWGQGTLVTVSSASTKGPSVFPLAPSSKSTSGGTAALGCLVKDYFPEPVTVSWNSGALTSGVHTFPAVLQSSGLYSLSSVVTVPSSSLGTQTYICNVNHKPSNTKVDKKVEPKSCDKTHTCPPCPAPEAQGGPSVFLFPPKPKDTLYITREPEVTCVVVDVSHEDPEVKFNWYVDGVEVHNAKTKPREEQYNSTYRVVSVLTVLHQDWLNGKEYKCQVSNKALPAPIEKTISKAKGQPREPQVYTLPPSRDELTKNQVSLTCLVKGFYPSDIAVEWESNGQPENNYKTTPPVLDSDGSFFLYSKLTVDKSRWQQGNVFSCSVMHEALHNHYTQKSLSLSPG light: DIQMTQSPSSLSASVGDRVTITCRASHSISSYLNWYQQKPGKVPKLLIYASSSLQSGVPSRFSGSGSGTDFTLIISSLQPEDFATYYCQQSHSIPLTFGGGTKVEIKRTVAAPSVFIFPPSDEQLKSGTASVVCLLNNFYPREAKVQWKVDNALQSGNSQESVTEQDSKDSTYSLSSTLTLSKADYEKHKVYACEVTHQGLSSPVTKSFNRGEC |  |  |  |  |  |  | 553 | 0.0146 | 26400 | 0.141 | 0.956 | 0.209 | 14.6 | 0.00188 | 129000 | no binding (tested: ~67 nM) | 2.62 | 0.368 | 0.173 | 1.47 | Kd [11]: 129 nM; Kd [12]: 28.8 nM; binding result (human SIRPγ-his protein): no binding (tested: antigen starting at 200 nM); binding result [22]: no binding (tested: ~67 nM); binding result (human SIRPβ-his protein): no binding |
| E1H10B7-CDRV1-IgG1 (antibody) heavy: not shown light: DIQMTQSPSSLSASVGDRVTITCRASHSISSYLNWYQQKPGKVPKLLIYASSSLQSGVPSRFSGSGSGTDFTLIISSLQPEDFATYYCQQSHSIPLTFGGGTKVEIKRTVAAPSVFIFPPSDEQLKSGTASVVCLLNNFYPREAKVQWKVDNALQSGNSQESVTEQDSKDSTYSLSSTLTLSKADYEKHKVYACEVTHQGLSSPVTKSFNRGEC |  |  |  |  |  |  | 376 | 0.0132 | 35000 | 0.151 | 0.973 | 0.224 | 8.78 | 0.00118 | 134000 | no binding (tested: ~67 nM) | 2.3 | 0.347 | 0.184 | 1.23 | Kd [23]: 94.1 nM; binding result (human SIRPγ-his protein): no binding (tested: antigen starting at 200 nM); binding result [22]: no binding (tested: ~67 nM); binding result (human SIRPβ-his protein): no binding |
